The text below walks through data of a protein production outcome set (Wang et al. 2014).

A short description of this data set: label from the status in PepcDB records.
For the sequence “MHSLYLGVVKVMAKIILVYANCVNSTAKGDFALAGQIAKDLVREKTSDDIDVVLTSTLDGIARFESLYGKAVDGRVIIEGTSVGLCALELFESVDNEVVAFIEANRCKYAPSDILKRVLSPDSKFLFIGAANQKAIATGDKFTKSWLYISHKGDQPNVYEHFDEDDSLIQSVGLGDDRLGLPSLPKVDELPEMNSTQSQKIPSGEYGFMYLAAVHGIDDVYLMNQYMSLTEMGQYVLVGEYAKQSKEVQMVLHSLQYKGSSVSLTMPQIFFHDSVDNCLMRNMVSKSSGPLVVSTGVMSSIEAMQDGKLTYYQTMSNNTQFVASYLIAVKSICSSDTTLFGSMPKLIIDLSNLLFAEKPLKESQMKEIKSLLGMSSVTSRLGEMNKRIIAKANGTVAGELLSFIGKPKTTQSHKQCISVCMSLRKSGETTSPIFDQALRRAAAWGRLFELKVLIASMSTSDLNKKDKTGNQYTALHWAVMQGHLDCARLLVKSGASVDIQDKSGKSPLHYAIKRGDKETIKLLVQAGASLEIMDDSGAKPCDGSESWVPEYIKSCYEKSGHKSSSLF”, the protein production entry was “failed”.
With “MLKFPLCCSELSLEPKILAFESQLVSGRRDTIKVSAGKIGNFSLGSIFKSCETCGAKGAIECPGCKGTGKNKKNGNMFERWKCFDCQGFGMKSCPKCGKGGLTPEQRGER” the entry was “failed”; with “MHEIFTMMLAVYDRAALMLICLFFLIRLRLFRELLHKSAHTPKELLAVTAIFSLFALFSTWSGVPVEGSLVNVRIIAVMSGGILFGPWVGAIVGAIAGVHRYLIDIDGVTAVPCFITSIVAGLLSGLINRKVAREQRWKIGILAGMMCETLTMILVVVWAPSLSLGVDIVSKIGIPMILGSVCIGFIVLLVQSVEGEKEASAARQAKLALDIANKTLPLFRHVNSDSLRQVCEIIRRDITADAVAITNTEHVLAYVGVGEANYQRHDDMISPTTRQAIRYGKIIIKNNDEAHRTPEIHSLMVIPLWEKGVVTGTLKIYYCHAHRITSTLQEMAIGLSQIISTQLEVSRAEQLREMANKAELRALQSKINPHFLFNALNAISSSIRLNPDTARQLIFNLSRYLRYNIELKDDEQIDIKRELYQIKDYIAIEQARFGDKLTVIYDIDDDVSCVIPSLLIQPLVENAIVHGIQPCKGKGVVTIGINECGNRVRISVRDTGNGIDPAVVARVEADEMPGNKIGLLNVHHRVKLLYGEGLHIRNLTPGTEIAFYVPNNSTPQALTESLLS”, “failed”; with “MKTIQPCSVEDIQSWLIDQFAQQLDVDPDDIDMEESFDNYDLNSSKALILLGRLEKWLGKELNPVLIFNYPTIAQLAKRLGELYL”, “not failed”.
As to “LLSLALAALMEDVHAHSGAVYLLAPDEPVLEMAVMAGLPRAFAAPWERVGLSAPLPVAEAVRERRLVWVNGEEQMAGRYPRVAVVLPYSFALAALPLACADTVYGALFVTWPDSHPPELSSRERDQLGVACDRLATRLAHA”, the protein production result was “failed”.
As for “GEERKSSSWGRVDAMELPNYSRQLLQQLYTLCKEQQFCDCTISIGTIYFRAHKLVLAAASLLFKTLLDNTDTISIDASVVSPEEFALLLEMMYTGKLPVGKHNFSKIISLADSLQMFDVAVSCKNLLTSLVNCSVQGQVVRDVSAPSSETFRKEPEKPQVEILSSEGAGEPHSSPELAATPGGPVKAETEEAAHSVSQEMSVNSPTAQESQRNAETPAETPTTAEACSPSPPVQTFSEAKKTSTEPGCERKHYQLNFLLENEGVFSDALMVTQDVLKKLEMCSEIKGPQKEMIVKCFEGEGGHSAFQRILGKVREESLDVQTVVSLLRLYQYSNPAVKTALLDRKPEDVDTVQPKGSTEEGKTLSVLLLEHKEDLIQCVTQLRPIMESLETAKEEFLTGTEKRVILNCCEGRTPKETIENLLHRMTEEKTLTAEGLVKLLQAVKTTFPNLGLLLEKLQKSATLPSTTVQPSPDDYGTELLRRYHENLSEIFTDNQILLKMISHMTSLAPGEREVMEKLVKRDSGSGGFNSLISAVLEKQTLSATAIWQLLLVVQETKTCPLDLLMEEIRREPGADAFFRAVTTPEHATLETILRHNQLILEAIQQKIECKLFTSEEEHLAETVKEILSIPSETASPEASLRAVLSRAMEKSVPAIEICHLLCSVHKSFPGLQPVMQELAYIGVLTKEDGEKETWKVSNKFHLEANNKEDEKAAKEDSQPGEQNDQGETGSLPGQQEKEASASPDPAKKSFICKACDKSFHFYCRLKVHMKRCRVAKSKQVQCKECSETKDSKKELDKHQLEAHGAGGEPDAPKKKKKRLPVTCDLCGREFAHASGMQYHKLTEHFDEKPFSCEECGAKFAANSTLKNHLRLHTGDRPFMCKHCLMTFTQASALAYHTKKKHSEGKMYACQYCDAVFAQSIELSRHVRTHTGDKPYVCRDCGKGFRQANGLSIHLHTFHNIEDPYDCKKCRMSFPTLQDHRKHIHEVHSKEYHPCPTCGKIFSAPSMLERHMVTHVGGKPFSCGICNKAYQQLSGLWYHNRTHHPDVFAAQNHRSSKFSSLQCSSCDKTFPNTIEHKKHIKAEHADMKFHECDQCKELFPTPALLQVHVKCQHSGSQPFRCLYCAATFRFPGALQHHVTTEHFKQSETTFPCELCGELFTSQAQLDSHLESEHPKVMSTETQAAASQMAQVIQTPEPVAPTEQVITLEETQLAGSQVFVTLPDSQASQASSELVAVTVEDLLDGTVTLICGEAK”, the protein production entry is given as “not failed”.
“MSYLLRREEVVDVAGLQAMLEETPGKAAQAILAAAGQGVVEAQLLLGQILLDGRGIQQDATVARRWFGIAAQGGSAMAHNMLGRCLEHGWGGEVNLVQAAVHYARAADSGLDWGLYNLGNLLATGRGVPANQVQALMCYEKAAQLGHAKSMNLYGRYLEQGIATAPSPARAVRWYRRSAEAGDFRGMFSLALVLVERGQLAEAGQWLEQARVAGNMNFLRAALVTLQDAGPVLMAFAARYAEEIDRREEAGTGEHT”: the protein production result is given as “failed”.
To “MFPHLALLNAHKRMHTDGEQQQQQQHNAQAGGDSIAVVSAQGLVQAQNIIGNGQMGQIQIVSSDTLEPVQQSVMQQQQHESKASKCINCGSSMLQQSKRKGPKQVRCESCMQAEQTAQQQQQLFVAQDG” belongs “failed”; to “MAIAPTIQPLPAPWVARMAAGEVIDSLAAVVRELCENSLDAGTQRLVIDLWPEQWRVRVADDGMGLSLENLQLAALAHTSSKLSPDRFTAEQLGFRGEALHSLARLGRLTIASRTADAAAGWQISYDIGGQPQVATPIAIAPGCIVEVQQLFQDWLERRQSQPSPAQQLRAVQQQIQNLVLAHPSITVQVTQNDRPWLAFAPVHHPQERLLQLLPNTSPADWRSQSLDLGSEGQLQVVVGLPDRCHRRRPDWVKVAVNGRVVRVSELEQAMIGALHRSLPRDRFPVVFAHLQVPPSQVDWHRHPAKAELFLQDLPVWCERIQEAIAQTLPLDPAEEIELPASTALLRVAETTGSYSESPSHLRAIAQVLNTYVLAEQGDSLWLIEQHIAHERVLFEQLQDDWQLVACQQPILLSKLSLEQRLQLDRLGITAEDFGEDLWAIRHIPAALAQREDLVEALLELSRGWDLSAAQAAIACRTAIRNGTLLYPEEQQTLIDRWQHCRQPRTCPHGRPIALVLPETSLARYFRRQWMIGRSHGLGDP”, “failed”; to “MKFVQERRLTVKTTFSKEYKIFIFGLLISRIGDSLYTFALPWIAYQLTGSAVIMGSLFAVNVLPIVLFGPLVGVLVDRYDRKKLLWMADIINIILVSLVPILHALHLLEVWHLYVITFILAVMSMLFDVTTVTVIPHIAGASLTKANSLYQMVNQLASLFGPIIAGLFISFIGGFQVLWINVLSFIATLIAVIILPSMKNLNKKNTDKKTLQNVLNDLFDGFKWLINDRLNIALSLQAMVGNFGASAVLGVLMYYLLSTLNLTSAQSGYNYTLIGIGGLLGSLIAVPLEKKFRRGILIPLLLFFGALGLTFALWSTYWLAPGIAFGIAMTCNITWNTIVTSIRQETVPSNLQGRVLGFSRVLTRLSMPLGALVGGIISAYNPVFIFALAAFTKIIEVFIALCSPIRKL”, “failed”.
As to “ERIPLAVGDTPATLYRLEGDAEAPLAVVTHGFGGSRQMMEAISLTLARAGLAVVSFDFRGQGRSAIPMSPDAFPNEAGSSGTTVQLVRQTLEVVEAARALPGIAGPPALIGHSMATDILVRAADRLPEVGPVALISAYSRQVTPETPARLLILSGQREGGLREVALEMARQVAPDAAEGETVRAGAVERRASVAPYVGHAGVLWSPTTLRELRDWL”, the protein production result is reported as “failed”.
